# Measured values taken from paper PMC10310011, “Accelerated absorption of regular insulin administered via a vascularizing permeable microchamber implanted subcutaneously in diabetic Rattus norvegicus” (PLOS ONE, 2023).
# Settings: rat, in vivo
# Description: Male athymic nude R. norvegicus between 9–12 weeks of age and weighing 250–350 g were purchased from Envigo (Livermore, CA, USA). Because estrogen interferes with streptozotocin [44] (see next), only male animals were included. Athymic nude rats were chosen to abrogate a possible antibody response against the human insulin to be injected. Animals were housed for a seven-day acclimatization period before initiating any experimental procedures. To avoid endogenous insulin in subject rats from cross-reacting in the human insulin assays, animals were rendered diabetic by a single intraperitoneal injection, 60 mg/kg, of streptozotocin (Sigma-Aldrich, St. Louis, MO, USA). Blood glucose concentrations were monitored daily using a Freestyle Lite Glucose Monitoring System (Abbott Diabetes Care Inc., Alameda, CA, USA). Rats were considered diabetic when blood glucose concentrations greater than 200 mg/dl were recorded on three consecutive days. Rats verified as diabetic were maintained with exogenous long-acting insulin (Lantus, Sanofi-Aventis, Bridgewater, NJ, USA) throughout the study; maintenance insulin treatment also serves to forestall insulin resistance. Maintenance insulin therapy was suspended for 24 hours prior to each insulin kinetics study. Two days after the initial insulin-kinetics assay two empty, 1.5 cm^2 per side, single-chamber (having a nominal internal volume of 22.5 μl), implantable vascularizing microchambers, IVMs (Procyon Technologies LLC, Tucson, AZ, USA) (Fig 1A) were implanted subcutaneously on the dorsal aspect of each rat. The initial insulin kinetics assays were performed 7 days after STZ induction of diabetes. […] Plasma samples collected from each insulin kinetics assay were analyzed for human insulin concentration using a commercial human insulin ELISA kit (Alpco, Salem, NH, USA). […] The measured insulin concentrations were converted from IU/ml to μg/ml according to the manufacturer’s recommended conversion ratios of 1 IU of human insulin = 6nmol = 34.8 μg of insulin. […] The mean and standard deviation (SD) for each category were then calculated. […]
substance,measurement,setting,value
insulin human,"Plasma insulin curves after SC injection, diluted versus stock concentration",,did not vary significantly
same,95% CI of Tmax,sc,13.18 to 32.27 min
same,Tmax (mean peak time of plasma insulin),sc,22.7 min
